We go through seven molecules from publication PMC6151396, “Production of Single-Chain Fv Antibodies Specific for GA-Pyridine, an Advanced Glycation End-Product (AGE), with Reduced Inter-Domain Motion” (Molecules : A Journal of Synthetic Chemistry and Natural …, 2017).

Assay [1] concerns the target T1, glycolaldehyde (GA)-modified bovine serum albumin (Bos taurus, UniProt P02769, modified by glycolaldehyde (GA-pyridine forms on the ε-amino group of Lys residues); sites not given).
T1 construct: bovine serum albumin; The scFvs are directed against GA-pyridine, a modified lysine; also called GA-BSA; source: BSA (25 mg/mL) incubated with 50 mM glycolaldehyde at 37 °C for 12 h, dialysed with PBS
The assay is described as follows: ELISA; phage ELISA: GA-BSA coated on a 96-well plate, scFv display phage clones added for 1 h at 25 °C, detected with HRP-conjugated anti-M13 antibody. To be noted: one partner purified.

Assay [2] has as its target T1, glycolaldehyde (GA)-modified bovine …. The assay is described as follows: ELISA; competitive ELISA of purified AGE73scFv with AGE-modified BSAs as competitors; coated antigen and conditions not told in the text shown (Figure S2). As to conditions: both partners purified.
For assay [3], the target named is T2, glucose-derived AGE-modified BSA (Bos taurus, UniProt P02769, glucose-derived AGE modification; sites not given).
T2 construct: bovine serum albumin; also called Glc-BSA
T2 sequence (P02769 25-607): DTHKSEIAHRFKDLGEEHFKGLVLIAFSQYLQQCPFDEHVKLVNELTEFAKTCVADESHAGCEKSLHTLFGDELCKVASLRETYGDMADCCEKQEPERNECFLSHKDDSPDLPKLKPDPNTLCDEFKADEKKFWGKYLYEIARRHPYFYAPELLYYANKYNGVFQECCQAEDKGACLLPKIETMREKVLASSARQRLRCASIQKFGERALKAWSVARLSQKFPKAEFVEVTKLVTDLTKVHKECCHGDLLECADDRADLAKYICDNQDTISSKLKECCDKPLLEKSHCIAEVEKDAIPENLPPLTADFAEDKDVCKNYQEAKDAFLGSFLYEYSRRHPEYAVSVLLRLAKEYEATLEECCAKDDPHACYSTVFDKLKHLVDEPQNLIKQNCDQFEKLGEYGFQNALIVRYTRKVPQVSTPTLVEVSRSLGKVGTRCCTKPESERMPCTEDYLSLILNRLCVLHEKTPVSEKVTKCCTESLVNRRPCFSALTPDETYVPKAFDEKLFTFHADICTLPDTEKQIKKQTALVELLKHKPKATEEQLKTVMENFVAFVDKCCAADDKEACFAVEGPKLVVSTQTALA
The assay is described as above. To be noted: both partners purified.

The target in assay [4] is T3, glyceraldehyde-modified BSA (Bos taurus, UniProt P02769, modified by glyceraldehyde; sites not given).
T3 construct: bovine serum albumin; also called GCA-BSA
T3 sequence (P02769 25-607): as above
The description is as above. To be noted: both partners purified.

Positions count from the first letter of the chain named. Names may count otherwise.

T1 sequence (P02769 25-607): as above

B1: AGE73scFv displayed on phage (scFv, V domains shown)
VH: QVKLQQSGPSLVKPSQTLSLTCSVTGDSITSGYWNWIRKFPGNKFEYLGYISYSGRTYYNPSLKSRISITRDTSKNQYYLQLNSVTTEDTATYYCSRPYYRYDYAIDYWGQGTTVTVSS
VL: DIELTQSPAIMSASLGERVTMTCTASSSVSSSYLHWYQQKPGSSPKLWIYSTSNLASGVPARFSSSGSGTSYSLTISRMEAEDAATYYCQQSRKVPYTFGGGTKLEIK
notes: VH of AGE73scFv; as the VH of m1; (Gly-Gly-Gly-Gly-Ser)3 linker; VL of AGE73scFv; as the VL of m1
Take B1: in assay [1], the binding result is recorded as “binds”.

B2: AGE112scFv displayed on phage (scFv, V domains shown)
VH: B1 VH with Q6E
VL: DIELTQSPTTMAASPGEKITITCSASSSISSNYLHWYQQKPGFSPKLLIYSTSNLASGVPARFSGSGSGTSYSLTISSMEAEDAATYYCQQWSSNPYTFGGGTKLEIK
notes: VH of AGE112scFv; (Gly-Gly-Gly-Gly-Ser)3 linker; VL of AGE112scFv
As for B2, the binding result in assay [1] is reported as “binds”.

B3: 73MuL-V94A displayed on phage (scFv, V domains shown)
VH: B1 VH
VL: B1 VL with V95A
notes: as the VH of m1 (AGE73scFv); (Gly-Gly-Gly-Gly-Ser)3 linker; as the VL of m1 (AGE73scFv) with V94A; probably Kabat; source: second library, error-prone PCR of the VL of AGE73scFv
With B3, the binding result in assay [1] is recorded as “binds”.

B4: 73MuL-S30P displayed on phage (scFv, V domains shown)
VH: B1 VH
VL: B1 VL with S31P
notes: as the VH of m1 (AGE73scFv); (Gly-Gly-Gly-Gly-Ser)3 linker; as the VL of m1 (AGE73scFv); source: second library, error-prone PCR of the VL of AGE73scFv
On to B4, for which the binding result in assay [1] was “binds”.

B5: AGE73scFv (scFv, V domains shown)
VH: B1 VH
VL: B1 VL
notes: VH of AGE73scFv, from the GA-KLH immunised mouse antibody library; (Gly-Gly-Gly-Gly-Ser)3 linker; VL of AGE73scFv, from the GA-KLH immunised mouse antibody library; the FLAG-tag lies on the N-terminal side of the hexahistidine-tag, so both are probably C-terminal of the scFv; also called anti-GA-pyridine scFv
Consider B5, for which the binding result in assay [2], in assay [3] and in assay [4] was “binds” throughout.

B6: 73MuL-S56P displayed on phage (scFv, V domains shown)
VH: B1 VH
VL: B1 VL with S57P
notes: as the VH of m1 (AGE73scFv); (Gly-Gly-Gly-Gly-Ser)3 linker; as the VL of m1 (AGE73scFv); probably Kabat; source: second library, error-prone PCR of the VL of AGE73scFv
Turning to B6, in assay [1], the binding result is “binds”.

B7: AGE78scFv displayed on phage (scFv, V domains shown)
VH: B1 VH with Q6E, Q81H, S96T, Y100H, Y108F
VL: DIELTQSPAIMSASPGEKVTMTCSASSSVSYMHWYQQKPGFSPKLLIYRTSNLASGVPARFSGSGSGTSYSLTIGTMEAEDVATYYCQQGSSIPYTFGGGTKLEIK
notes: VH of AGE78scFv; (Gly-Gly-Gly-Gly-Ser)3 linker; VL of AGE78scFv
Take B7: the binding result in assay [1] is listed as “binds”.
